Experimental data published in patent publication US20250366499A1, “Flavin-Containing Monoamine Oxidase MAO6sh Capable of Degrading Biogenic Amines and Application Thereof” (Jiangnan University, priority 2024, published 2025).
Where “and” joins values, the source holds several entries; their conditions need not be identical. Identical values can stand only once.

Columns and labels:
[1] = Enzyme activity measurement (peroxidase-coupled, A510), substrate putrescine; format: biochemical
Procedure: (§1) Enzyme activity measurement: The activity of a biogenic amine oxidase was measured by an indirect measurement method of […]. The amine oxidase acts on biogenic amines to degrade the biogenic amines into corresponding aldehydes and hydrogen peroxide. Under the presence of peroxidase, hydrogen peroxide reacts with 4-aminoantipyrine and 2,4,6-tribromo-3-hydroxybenzoic acid to generate a quinone dye. The product has a maximum absorption value at 510 nm, and the magnitude of the activity of the amine oxidase was linearly related to the color intensity of the product within a certain range, so that the activity of the amine oxidase can be measured by measuring the change in A510.
(§2) The reaction was carried out in a 96-well plate. The reaction system included 20 μl of enzyme solution (80 ug·mL^−1) and 100 μl of prepared solution (including 200 mmol·L^−1 potassium phosphate buffer with a pH of 7.6, 1.5 mmol·L^−1 4-aminoantipyrine, and 1 mmol·L^−1 2,4,6-tribromo-3-hydroxybenzoic acid). To initiate the reaction, 20 μL of biogenic amine solution (10 mmol·L^−1) and 70 µL of peroxidase (1.4 mg·mL^−1) were added, the absorbance was measured at 510 nm, the reaction temperature was 37° C., and the reaction time was 10 min. The change in absorbance of 0.01 per minute was defined as one enzyme activity unit (U).
(§3) Definition of specific activity of monoamine oxidase (U/mg): The enzyme activity per milligram of protein.
(§4) The catalytic ability of the monoamine oxidase MAO6^sh before and after purification was measured respectively using a single biogenic amine as a substrate. Systems containing putrescine, tyramine, histamine, cadaverine, phenylethylamine, tryptamine, spermine or spermidine with a concentration of 10 mmol/L were prepared respectively, the pure enzyme in Example 3 was added to the reaction system after adjusting the protein concentration (80 ug/mL, 20 uL) for reacting for 30 min at 37° C., and the results were shown in
(§5) After the enzyme solution purified in Example 3 was respectively incubated for 30 min in water baths at 15° C., 30° C., 35° C., 40° C., 45° C., 50° C., 55° C. and 60° C., the enzyme activity was measured according to the standard enzyme reaction system to determine the stable temperature range thereof, and the results were shown in FIG. 6. […] When the incubation temperature was 50° C., the residual enzyme activity for putrescine was 36.66%, the residual enzyme activity for cadaverine was 30.55%, and the residual enzyme activity for tryptamine was 26.34%.
The reaction system was the same as that of Example 5, except that the pH of the reaction system was respectively adjusted to 3.0-9.0, the enzyme activity of the recombinant enzyme MAO6^sh under different pH reaction conditions was measured, the relative enzyme activity at each temperature was calculated respectively using a single biogenic amine as a substrate at the highest enzyme activity of 100%, and the results were shown in FIG. 7. When putrescine was used as a substrate, the optimal pH for the MAO6^sh was about 5.0-6.0. When the pH was within the range of 3.0-5.0, the enzyme activity […] rapidly with the increase of the pH. However, under alkaline conditions, the tolerance was stronger than the acid tolerance.
(§6) The reaction system was the same as that of Example 5, except that ethanol with different concentrations (0-20% vol) was added respectively. […] When the concentration of ethanol was about 15 vol %, the relative enzyme activities of the monoamine oxidase MAO6^sh for putrescine, tryptamine and cadaverine were 9.57%, 11.21% and 13.67% respectively (FIG. 9).

[2] = Enzyme activity measurement (peroxidase-coupled, A510), substrate tryptamine; format: biochemical
Procedure: as §1, §2, §3, §4, §5, §6

[3] = Enzyme activity measurement (peroxidase-coupled, A510), substrate cadaverine; format: biochemical
Procedure: as §1, §2, §3, §4, §5, §6

[4] = format: biochemical
Procedure: as §1
The reaction was carried out in a 96-well plate. […] To initiate the reaction, 20 μL of biogenic amine solution (10 mmol·L^−1) and 70 µL of peroxidase (1.4 mg·mL^−1) were added, the absorbance was measured at 510 nm, the reaction temperature was 37° C., and the reaction time was 10 min. The change in absorbance of 0.01 per minute was defined as one enzyme activity unit (U).
The catalytic ability of the monoamine oxidase MAO6^sh before and after purification was measured respectively using a single biogenic amine as a substrate. […]

[5] = Degradation in commercially available Huangjiu, tryptamine; format: biochemical; conditions: Huangjiu 18% vol, enzyme 200 μg/ml added 1:1, about 28° C., 48 h
Procedure: (§7) The content of biogenic amines was detected by high-performance liquid chromatography (HPLC).
(§8) The recombinant monoamine oxidase MAO6^sh prepared in Example 3 was subjected to ultrafiltration and concentration to adjust the protein concentration to 200 μg/ml, and then added to the Huangjiu in a ratio of 1:1 for reacting at a room temperature of about 28° C. for 48 h. The control group was commercially available Huangjiu (18% vol) without enzymes, and the total content of biogenic amines in the control group was 136.2 mg·L^−1.

[6] = Degradation in commercially available Huangjiu, putrescine; format: biochemical; conditions: Huangjiu 18% vol, enzyme 200 μg/ml added 1:1, about 28° C., 48 h
Procedure: as §7, §8

[7] = Degradation in commercially available Huangjiu, phenylethylamine; format: biochemical; conditions: Huangjiu 18% vol, enzyme 200 μg/ml added 1:1, about 28° C., 48 h
Procedure: as §7, §8

[8] = Degradation in commercially available Huangjiu, cadaverine; format: biochemical; conditions: Huangjiu 18% vol, enzyme 200 μg/ml added 1:1, about 28° C., 48 h
Procedure: as §7, §8

[9] = Degradation in commercially available Huangjiu, histamine; format: biochemical; conditions: Huangjiu 18% vol, enzyme 200 μg/ml added 1:1, about 28° C., 48 h
Procedure: as §7, §8

[10] = Degradation in commercially available Huangjiu, tyramine; format: biochemical; conditions: Huangjiu 18% vol, enzyme 200 μg/ml added 1:1, about 28° C., 48 h
Procedure: as §7, §8

[11] = Degradation in commercially available Huangjiu, spermidine; format: biochemical; conditions: Huangjiu 18% vol, enzyme 200 μg/ml added 1:1, about 28° C., 48 h
Procedure: as §7, §8

[12] = Degradation in commercially available Huangjiu, spermine; format: biochemical; conditions: Huangjiu 18% vol, enzyme 200 μg/ml added 1:1, about 28° C., 48 h
Procedure: as §7, §8

[13] = Degradation in commercially available Huangjiu, total biogenic amines; format: biochemical; conditions: Huangjiu 18% vol (control 136.2 mg/L total), enzyme 200 μg/ml added 1:1, about 28° C., 48 h
Procedure: as §7, §8

[14] = Application in commercially available low-salt soy sauce; format: biochemical; conditions: enzyme 200 ug/ml, 25° C., 24-48 h
Procedure: The recombinant monoamine oxidase MAO6^sh prepared in Example 3 was subjected to ultrafiltration and concentration to adjust the protein concentration to 200 ug/ml, and then added to the commercially available low-salt soy sauce for standing at a room temperature (25° C.) for 24-48 h.

[15] = Application in table vinegar; format: biochemical; conditions: enzyme 200 μg/ml, 25° C., 24-48 h
Procedure: The recombinant monoamine oxidase MAO6^sh prepared in Example 3 was subjected to ultrafiltration and concentration to adjust the protein concentration to 200 μg/ml, and then added to the commercially available table vinegar for standing at a room temperature (25° C.) for 24-48 h.

[16] = Application in fermented sausage; format: biochemical; conditions: enzyme 200 μg/ml added to raw material, versus sausage without enzyme
Procedure: 65-80% of lean meat and 20-35% of fat meat were taken by mass and cleaned, and bones, tendons, myolemma, lymph nodes, blood vessels, lesions and injury sites were removed. The fat meat and the lean meat were separated and cut into 4-5 cm meat pieces. The lean meat and about 5-8% of flake ice were placed in a chopper and chopped for 1-3 min. Based on the mass of pork, […] of sodium nitrite, 2-3% of table salt, 0.2-0.3% of compound phosphate, and 0.05-0.06% of sodium ascorbate were added. Spices, pepper, garlic, chili, and nutmeg were 0.2-0.3% of the raw meat. The recombinant monoamine oxidase MAO6^sh prepared in Example 3 was subjected to ultrafiltration and concentration to adjust the protein concentration to 200 μg/ml, and then added to the sausage raw material for chopping for 1-2 min, and then, the fat meat and about 5-8% of flake ice were added for chopping for 4-6 min. The sausage was pickled and then poured into the sausage casing. The sausage poured into the sausage casing was pickled at 4° C. for 12 h, then heated to 30° C., fermented until the pH decreased to about 5.1, and matured at 14-16° C. for 1-10 d.

[17] = crude enzyme solution, induction at 16° C.
[18] = pure enzyme 80 ug/mL, 10 mmol/L substrate, 37° C., 30 min

B1: MAO6^sh: recombinant flavin-containing monoamine oxidase from Saccharopolyspora hirsuta, amino acid sequence SEQ ID NO. 1, expressed in E. coli BL21/pET28a-MAO6^sh (protein, listed as Saccharopolyspora hirsuta)
chain: MDSYDVVVIGAGFAGLVAARELALRGHAVVVLEARDRIGGRTWTDERLGRRLEMGGTWVHWLQPHVWSEITRYDQRIEPSPSSQAVHWVAGGSAHRGSPEEFDALISPGMDQLARDSRAWFPLPYEPLHRADLDQVDHLSVADYFAGLDLNPVEREVTEGVWAEHFNGPAAVSGYTQAMRWCAAASGNWQLLHQATSGYRLTGGTAALAGAIAADGGAELHLGSVVASVSQDSGGATVSTTDGTSVRARRVICTLPLNVLGTVDFQPALPATKLAASAERTASQGLKTWIRVRGEVAPFTAYAPDSHDLTFVRPEYTVEGDTLLVAFGTRAADLAPDDVDGVARALRVWRDDLEVLEVSGHDWMTDDFSRETWPMQRPEQLTRYLAALQEPHGVVRFAGSDLATGWAGFIDGAVESGLRASRAVQDALRGPRG
Q: With B1 as the molecule, how does the “residual enzyme activity for putrescine” value ([1]; 30 min incubation at 50° C.) read?
A: 36.66%

Q: What about the “specific enzyme activity for putrescine” value [1, 17] of the same molecule?
A: 15.66 U/mg

Q: What about the “relative enzyme activity for putrescine” value ([1]; ethanol about 15 vol %) of the same molecule?
A: 9.57%

Q: What about the “relative enzyme activity for putrescine” value ([1]; ethanol lower than 10% vol) of the same molecule?
A: 29.44%

Q: What about the “specific enzyme activity for putrescine” value [1, 18] of the same molecule?
A: 161.59 U/mg

Q: What about the “optimal pH” value ([1]; putrescine as substrate, reaction pH 3.0-9.0) of the same molecule?
A: 5.0-6.0

Q: What about the “residual enzyme activity for tryptamine” value ([2]; 30 min incubation at 50° C.) of the same molecule?
A: 26.34%

Q: And the “specific enzyme activity for tryptamine” value [2, 17]?
A: 13.94 U/mg

Q: What about the “relative enzyme activity for tryptamine” value ([2]; ethanol about 15 vol %) of the same molecule?
A: 11.21%

Q: And the “relative enzyme activity for tryptamine” value ([2]; ethanol lower than 10% vol)?
A: 30.27%

Q: And the “specific enzyme activity for tryptamine” value [2, 18]?
A: 149.16 U/mg

Q: And the “residual enzyme activity for cadaverine” value ([3]; 30 min incubation at 50° C.)?
A: 30.55%

Q: And the “specific enzyme activity for cadaverine” value [3, 17]?
A: 14.70 U/mg

Q: And the “relative enzyme activity for cadaverine” value ([3]; ethanol about 15 vol %)?
A: 13.67%

Q: And the “relative enzyme activity for cadaverine” value ([3]; ethanol lower than 10% vol)?
A: 35.78%

Q: What about the “specific enzyme activity for cadaverine” value [3, 18] of the same molecule?
A: 146.05 U/mg

Q: What about the residual enzyme activity ([4]; 30 min incubation, incubation temperature exceeds 45° C.) of the same molecule?
A: about 30%

Q: What about the optimal temperature ([4]; most suitable substrate, reaction temperatures 25-60° C.) of the same molecule?
A: 45-50 °C

Q: What about the “Degradation rate, Tryptamine” value [5] of the same molecule?
A: 54.07% and 54.06%

Q: What about the “Degradation rate, Tryptamine” value ([5]; listed as recombinant enzyme) of the same molecule?
A: 54.07%

Q: And the “Degradation rate, Putrescine” value [6]?
A: 33.76%

Q: What about the “Degradation rate, Phenylethylamine” value [7] of the same molecule?
A: 5.78%

Q: And the “Degradation rate, Cadaverine” value [8]?
A: 43.78%

Q: What about the “Degradation rate, Histamine” value [9] of the same molecule?
A: 21.44%

Q: What about the “Degradation rate, Tyramine” value [10] of the same molecule?
A: 19.31%

Q: And the “Degradation rate, Spermidine” value [11]?
A: 8.51%

Q: What about the “Degradation rate, Spermine” value [12] of the same molecule?
A: 7.75%

Q: What about the “degradation rate for total biogenic amines” value [13] of the same molecule?
A: 25.56%

Q: And the “reduction of content of biogenic amines” value [14]?
A: effectively reduce the content of biogenic amines

Q: What about the “reduction of content of biogenic amines” value [15] of the same molecule?
A: effectively reduce the content of biogenic amines

Q: What about the “reduction of content of biogenic amines” value [16] of the same molecule?
A: effectively reduce the content of biogenic amines
